From publication PMC8615095 come the findings set out here.

Where two headings read alike, the source gives them in different places.

The target of experiment [1] is membrane-bound IgE-Fc (IgE-Fc-B-cell receptor: 3xFLAG-Cε2-Cε3-Cε4-EMPD-transmembrane-intracellular domain).
For experiment [2] the target is unchanged. This is another data set of the same source.
For experiment [3] the target is unchanged. Kind of experiment: flow cytometry on cells; graded concentrations of His-tagged BiTE on Ramos-Fcε (doxycycline-induced), empty-vector Ramos, Jurkat E6-1 or TIB-153 cells, 30 min on ice in 2% BSA-PBS; detected with anti-pentahis-AlexaFluor 488 (Ramos) or 647 (Jurkat, TIB-153); EC50 from geometric mean fluorescence. (A flow cytometer gives signals particle by particle.)

For experiment [4] the target is unchanged. This is another data set of the same source.
The target of experiment [5] is CD19 (Homo sapiens (endogenous, Ramos EHRB)) (UniProt P15391).
Sequence of CD19 (Homo sapiens (endogenous, Ramos EHRB)) (P15391 20-556): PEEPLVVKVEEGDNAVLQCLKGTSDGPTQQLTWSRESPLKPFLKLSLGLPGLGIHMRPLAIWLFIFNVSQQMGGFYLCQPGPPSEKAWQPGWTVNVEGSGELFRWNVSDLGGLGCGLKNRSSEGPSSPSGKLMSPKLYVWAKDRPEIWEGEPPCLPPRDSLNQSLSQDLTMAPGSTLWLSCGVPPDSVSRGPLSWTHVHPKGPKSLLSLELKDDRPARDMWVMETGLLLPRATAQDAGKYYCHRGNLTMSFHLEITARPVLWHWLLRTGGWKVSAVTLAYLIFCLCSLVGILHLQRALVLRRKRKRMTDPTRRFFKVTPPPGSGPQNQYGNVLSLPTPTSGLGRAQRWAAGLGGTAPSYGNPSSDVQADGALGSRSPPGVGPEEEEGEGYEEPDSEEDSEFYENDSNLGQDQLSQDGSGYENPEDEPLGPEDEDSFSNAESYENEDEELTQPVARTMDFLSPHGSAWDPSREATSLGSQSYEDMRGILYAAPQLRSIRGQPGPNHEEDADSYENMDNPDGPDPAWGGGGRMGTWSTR
Experiment [6] has the same target. Kind of experiment: flow cytometry on cells; graded concentrations of His-tagged BiTE on Ramos-Fcε (doxycycline-induced), empty-vector Ramos, Jurkat E6-1 or TIB-153 cells, 30 min on ice in 2% BSA-PBS; detected with anti-pentahis-AlexaFluor 488 (Ramos) or 647 (Jurkat, TIB-153); EC50 from geometric mean fluorescence.
Experiment [7] shares this target. The experiment is described as above. This is another data set of the same source.

“MEDI4212-based BiTE (anti-IgE scFv of MEDI4212 fused to anti-CD3ε scFv) (bispecific antibody)” gave an NFAT-luciferase reporter in CD3-overexpressing T cells, fold activation with Ramos-Fcε target cells, E:T 1:1, at 400 pM in experiment [1] of 10 fold. In experiment [2], this substance came in with an NFAT-luciferase reporter in CD3-overexpressing T cells, fold induction with Ramos-Fcε target cells, E:T 5:1, at 80 pM of 9 fold. Moreover, the concentration for a half-maximal effect (EC50) in experiment [3] was found to be 0.4 nM. Moreover, the IL-2 promoter-luciferase reporter in CD3-overexpressing T cells, fold activation with Ramos-Fcε target cells, E:T 2.5, at 400 pM in experiment [4] amounted to 4 fold.

Substance “blinatumomab (anti-CD19 scFv fused to anti-CD3ε scFv, with C-terminal 8-His-tag) (bispecific antibody)” returned an NFAT-luciferase reporter in CD3-overexpressing T cells with Ramos-Fcε target cells, E:T 5:1, dilutions of blinatumomab from 1 nM; EC50 of T-cell activation in experiment [5] of 0.014 nM. Also, the EC50 amounted to 2.5 nM in experiment [6] and 5 nM in experiment [7].

The substance “ligelizumab-based BiTE (anti-IgE scFv of ligelizumab fused to anti-CD3ε scFv) (bispecific antibody)” came in with an NFAT-luciferase reporter in CD3-overexpressing T cells, fold activation with Ramos-Fcε target cells, E:T 1:1, 400 pM (59-fold) to 2000 pM in experiment [1] of 162 fold. The same substance came in with an NFAT-luciferase reporter in CD3-overexpressing T cells, fold induction with Ramos-Fcε target cells, E:T 5:1, at 400 pM in experiment [2] of 47 fold. The substance also yielded a half-maximal effective concentration (EC50) in experiment [3] of 0.4 nM. For the same substance, the IL-2 promoter-luciferase reporter in CD3-overexpressing T cells, fold specific activation with Ramos-Fcε target cells, E:T 2.5, at 2 nM in experiment [4] was found to be 7 fold.

Regarding “omalizumab-based BiTE (anti-IgE scFv of omalizumab fused to anti-CD3ε scFv) (bispecific antibody)”, in experiment [1], the NFAT-luciferase reporter in CD3-overexpressing T cells, fold activation with Ramos-Fcε target cells, E:T 1:1, at 80 pM was found to be 5 fold. This substance also returned an NFAT-luciferase reporter in CD3-overexpressing T cells, fold induction with Ramos-Fcε target cells, E:T 5:1, at 80 pM in experiment [2] of 11 fold. The same substance showed a 50% effective concentration (EC50) in experiment [3] of 2 nM. Also, the IL-2 promoter-luciferase reporter in CD3-overexpressing T cells, fold activation with Ramos-Fcε target cells, E:T 2.5, at 400 pM in experiment [4] was 2 fold.

For the substance “quilizumab-based BiTE (anti-IgE EMPD scFv of quilizumab fused to anti-CD3ε scFv) (bispecific antibody)”, in experiment [3], the half-maximal effective concentration (EC50) worked out at 40 nM.

A word on the EC50: it is the concentration that produces a half-maximal response. Higher therefore signals weaker potency.
